Data as given in patent US20230348564A1, “ANTI-CANCER PROTEINS” (UNICHEM LABORATORIES LTD, priority 2020, published 2023).

Tests used:
MDA-MB-231 = assay: Annexin-V staining (flow cytometry); assay type: cell-based, Human; conditions: 24 h
Protocol: (§1) The cell lines were maintained in DMEM+10% FBS (heat inactivated) at 37° C. with 5% CO2, and 95% humidity. Antibiotics Penicillin (100 U/mL) and Streptomycin (100 μg/mL) were added to the medium.
(§2) The stock solution of recombinant lectin having the amino acid sequence of SEQ ID NO. […] Doxorubicin was used as positive control and stock solution was prepared in DMSO.
(§3) Cells were counted using hemocytometer and plated in culture plates at the density of 0.4×10^6 cells/well in DMEM+10% FBS in 6-well plates. Cells were incubated overnight to allow the cell recovery and exponential growth. Following overnight incubation, cells were treated with Lectin having the amino acid sequence of SEQ ID NO. 2 in DMEM+0% FBS at concentrations ranging from 2.5 μg/mL to 80 μg/mL. Untreated cells were included as Control group for sample. Cells treated with Doxorubicin were included as Positive Control group. DMSO treated cells were included as control group for Doxorubicin. After treatment, cells were incubated for a time period of 24 h.
(§4) Following incubation, the pro-apoptotic effect was estimated using Annexin assay kit as follows: Annexin reagent contains Annexin-V+7-AAD stain, which differentially labels apoptotic cells in different phases. Four populations of cells can be determined from the flow cytometric plots as follows: • a) Upper Left (UL)—7-AAD(+)/Annexin(−) or Necrotic cells • b) Upper Right (UR)—7-AAD(+)/Annexin(+) or Late apoptotic cells • c) Lower Left (LL)—7-AAD(−)/Annexin(−) or Viable/non-apoptotic cells • d) Lower Right (LR)—7-AAD(−)/Annexin(+) or Early apoptotic cells
(§5) Cells were gently harvested into pre-labeled sterile centrifuge tubes and centrifuged at 300×g for 5-7 min. Supernatant were discarded and the pellet was resuspended in 200 μl of fresh culture medium.
(§6) 100 μl of cell suspension was transferred into pre-labeled sterile centrifuge tubes.
(§7) 100 μl of Annexin-V reagent was added to each tube and incubated for 30 min at RT in dark.
(§8) Cells stained for Annexin-V were then transferred into 96-well plates and acquired on flow cytometer (Guava technologies). Percentage of cells in early apoptotic, late apoptotic and necrotic phase were determined.
(§9) Fold increase in apoptotic cells (treated with Test Items) was determined as compared to Control (untreated cells).

PANC-1 [1] = assay: Annexin-V staining (flow cytometry); assay type: cell-based, Human; conditions: 24 h
Protocol: as §1, §2, §3, §4, §5, §6, §7, §8, §9

Glioblastoma (LN-18) = assay: cytotoxicity in Brain Tumor Cell lines by MTT assay; assay type: cell-based, Human; conditions: 72 h
Protocol: (§10) The SEQ ID NO. […] Untreated cells were used as control. […] Cells were incubated for 3 h at 37° C.

Neuroblastoma (SH-SY5Y) = assay: as above; assay type: cell-based, Human; conditions: 72 h
Protocol: as §10

PANC-1 [2] = test system: PANC-1
Astrocytoma (U87MG) = assay: cytotoxicity in Brain Tumor Cell lines by MTT assay; conditions: 72 h

B1: SEQ ID NO. 2: recombinant lectin; variant of the S. rolfsii lectin amino acid sequence (reported as Rec-2 in WO 2010/095143) (protein)
chain: TYKITVRVYQTNPDAFFHPVEKTVWKYANGGTWTITDDQHVLTMGGSGTSGTLRFHADNGESFTATFGVHNYKRWCDIVTNLAADETGMVINQQYYSQKNREEARERQLSNYQVKNAKGRNFQIVYTEAEGNDLHANLIIG
modifications: In vitro synthesis
% Population of cells, LL Annex− 7AAD− Viable (MDA-MB-231; 2.5 μg/mL): 75.7% | % Population of cells, LR Annex+ 7AAD− Early apoptotic (MDA-MB-231; 2.5 μg/mL): 7.9% | % Population of cells, UL Annex− 7AAD+ Necrotic (MDA-MB-231; 2.5 μg/mL): 3.2% | % Population of cells, UR Annex+ 7AAD+ Late apoptotic (MDA-MB-231; 2.5 μg/mL): 13.2% | Fold increase (wrt control), LR Annex+ 7-AAD− (MDA-MB-231; 2.5 μg/mL): 15.8 fold | Fold increase (wrt control), UL Annex− 7-AAD+ (MDA-MB-231; 2.5 μg/mL): 4.6 fold | Fold increase (wrt control), UR Annex+ 7-AAD+ (MDA-MB-231; 2.5 μg/mL): 22.0 fold | % Population of cells, LL Annex− 7AAD− Viable (MDA-MB-231; 5 μg/mL): 72.3% | % Population of cells, LR Annex+ 7AAD− Early apoptotic (MDA-MB-231; 5 μg/mL): 7.0% | % Population of cells, UL Annex− 7AAD+ Necrotic (MDA-MB-231; 5 μg/mL): 12.5% | % Population of cells, UR Annex+ 7AAD+ Late apoptotic (MDA-MB-231; 5 μg/mL): 8.2% | Fold increase (wrt control), LR Annex+ 7-AAD− (MDA-MB-231; 5 μg/mL): 14.0 fold | Fold increase (wrt control), UL Annex− 7-AAD+ (MDA-MB-231; 5 μg/mL): 17.9 fold | Fold increase (wrt control), UR Annex+ 7-AAD+ (MDA-MB-231; 5 μg/mL): 13.7 fold | % Population of cells, LL Annex− 7AAD− Viable (MDA-MB-231; 10 μg/mL): 64.1% | % Population of cells, LR Annex+ 7AAD− Early apoptotic (MDA-MB-231; 10 μg/mL): 5.8% | % Population of cells, UL Annex− 7AAD+ Necrotic (MDA-MB-231; 10 μg/mL): 20.6% | % Population of cells, UR Annex+ 7AAD+ Late apoptotic (MDA-MB-231; 10 μg/mL): 9.5% | Fold increase (wrt control), LR Annex+ 7-AAD− (MDA-MB-231; 10 μg/mL): 11.6 fold | Fold increase (wrt control), UL Annex− 7-AAD+ (MDA-MB-231; 10 μg/mL): 29.4 fold | Fold increase (wrt control), UR Annex+ 7-AAD+ (MDA-MB-231; 10 μg/mL): 15.8 fold | % Population of cells, LL Annex− 7AAD− Viable (MDA-MB-231; 20 μg/mL): 58.5% | % Population of cells, LR Annex+ 7AAD− Early apoptotic (MDA-MB-231; 20 μg/mL): 2.9% | % Population of cells, UL Annex− 7AAD+ Necrotic (MDA-MB-231; 20 μg/mL): 32.7% | % Population of cells, UR Annex+ 7AAD+ Late apoptotic (MDA-MB-231; 20 μg/mL): 5.9% | Fold increase (wrt control), LR Annex+ 7-AAD− (MDA-MB-231; 20 μg/mL): 5.8 fold | Fold increase (wrt control), UL Annex− 7-AAD+ (MDA-MB-231; 20 μg/mL): 46.7 fold | Fold increase (wrt control), UR Annex+ 7-AAD+ (MDA-MB-231; 20 μg/mL): 9.8 fold | % Population of cells, LL Annex− 7AAD− Viable (MDA-MB-231; 80 μg/mL): 61.0% | % Population of cells, LR Annex+ 7AAD− Early apoptotic (MDA-MB-231; 80 μg/mL): 5.3% | % Population of cells, UL Annex− 7AAD+ Necrotic (MDA-MB-231; 80 μg/mL): 26.0% | % Population of cells, UR Annex+ 7AAD+ Late apoptotic (MDA-MB-231; 80 μg/mL): 7.7% | Fold increase (wrt control), LR Annex+ 7-AAD− (MDA-MB-231; 80 μg/mL): 10.6 fold | Fold increase (wrt control), UL Annex− 7-AAD+ (MDA-MB-231; 80 μg/mL): 37.1 fold | Fold increase (wrt control), UR Annex+ 7-AAD+ (MDA-MB-231; 80 μg/mL): 12.8 fold | % Population of cells, LL Annex− 7AAD− Viable (PANC-1 [1]; 2.5 μg/mL): 87.7% | % Population of cells, LR Annex+ 7AAD− Early apoptotic (PANC-1 [1]; 2.5 μg/mL): 0.5% | % Population of cells, UL Annex− 7AAD+ Necrotic (PANC-1 [1]; 2.5 μg/mL): 10.8% | % Population of cells, UR Annex+ 7AAD+ Late apoptotic (PANC-1 [1]; 2.5 μg/mL): 1.0% | Fold increase (wrt control), LR Annex+ 7-AAD− (PANC-1 [1]; 2.5 μg/mL): 5.0 fold | Fold increase (wrt control), UL Annex− 7-AAD+ (PANC-1 [1]; 2.5 μg/mL): 1.0 fold | Fold increase (wrt control), UR Annex+ 7-AAD+ (PANC-1 [1]; 2.5 μg/mL): 2.5 fold | % Population of cells, LL Annex− 7AAD− Viable (PANC-1 [1]; 5 μg/mL): 81.3% | % Population of cells, LR Annex+ 7AAD− Early apoptotic (PANC-1 [1]; 5 μg/mL): 0.4% | % Population of cells, UL Annex− 7AAD+ Necrotic (PANC-1 [1]; 5 μg/mL): 15.5% | % Population of cells, UR Annex+ 7AAD+ Late apoptotic (PANC-1 [1]; 5 μg/mL): 2.8% | Fold increase (wrt control), LR Annex+ 7-AAD− (PANC-1 [1]; 5 μg/mL): 4.0 fold | Fold increase (wrt control), UL Annex− 7-AAD+ (PANC-1 [1]; 5 μg/mL): 1.5 fold | Fold increase (wrt control), UR Annex+ 7-AAD+ (PANC-1 [1]; 5 μg/mL): 7.0 fold | % Population of cells, LL Annex− 7AAD− Viable (PANC-1 [1]; 10 μg/mL): 78.7% | % Population of cells, LR Annex+ 7AAD− Early apoptotic (PANC-1 [1]; 10 μg/mL): 0.0% | % Population of cells, UL Annex− 7AAD+ Necrotic (PANC-1 [1]; 10 μg/mL): 20.8% | % Population of cells, UR Annex+ 7AAD+ Late apoptotic (PANC-1 [1]; 10 μg/mL): 0.4% | Fold increase (wrt control), UL Annex− 7-AAD+ (PANC-1 [1]; 10 μg/mL): 2.0 fold | Fold increase (wrt control), UR Annex+ 7-AAD+ (PANC-1 [1]; 10 μg/mL): 1.0 fold | % Population of cells, LL Annex− 7AAD− Viable (PANC-1 [1]; 20 μg/mL): 71.5% | % Population of cells, LR Annex+ 7AAD− Early apoptotic (PANC-1 [1]; 20 μg/mL): 0.0% | % Population of cells, UL Annex− 7AAD+ Necrotic (PANC-1 [1]; 20 μg/mL): 28.1% | % Population of cells, UR Annex+ 7AAD+ Late apoptotic (PANC-1 [1]; 20 μg/mL): 0.4% | Fold increase (wrt control), UL Annex− 7-AAD+ (PANC-1 [1]; 20 μg/mL): 2.7 fold | Fold increase (wrt control), UR Annex+ 7-AAD+ (PANC-1 [1]; 20 μg/mL): 1.0 fold | % Population of cells, LL Annex− 7AAD− Viable (PANC-1 [1]; 80 μg/mL): 72.8% | % Population of cells, LR Annex+ 7AAD− Early apoptotic (PANC-1 [1]; 80 μg/mL): 0.0% | % Population of cells, UL Annex− 7AAD+ Necrotic (PANC-1 [1]; 80 μg/mL): 26.7% | % Population of cells, UR Annex+ 7AAD+ Late apoptotic (PANC-1 [1]; 80 μg/mL): 0.5% | Fold increase (wrt control), UL Annex− 7-AAD+ (PANC-1 [1]; 80 μg/mL): 2.6 fold | Fold increase (wrt control), UR Annex+ 7-AAD+ (PANC-1 [1]; 80 μg/mL): 1.3 fold | % of cytotoxicity (Glioblastoma (LN-18); 2.5 μg/mL-100 μg/mL): 39.6%-75.3% | IC50 Value (Glioblastoma (LN-18)): 4.35 µg/mL | % of cytotoxicity (Neuroblastoma (SH-SY5Y); 2.5 μg/mL-100 μg/mL): 10.3%-46.9% | IC50 Value (Neuroblastoma (SH-SY5Y)): >100 µg/mL | % Cytotoxicity (PANC-1 [2]): 60.8% | IC50 Value (Astrocytoma (U87MG)): 98.88 µg/mL
